B1: Hairpin Ribozyme (parent)
chain: GUCCUCUUUCACGUGCGCGUGAAAGAGAGAAGUGAACCAGAGAAACACACGUUGUGGUAUAUUACCUGGUA

The data set covers variants of B1. The data set can be described thus: self-cleavage, relative activity (ratio to wild type); higher = more cleavage; co-transcriptional.
For GUCCCCUUUCACGAGCGCGUGAAAGAGAGAAGUGAACCAGAGAAACACACGUUGUGGUAUAUUACCUGGUA, the self-cleavage came out at 0.428. For the variant GUCCUCUUUCACGUGCGCGUGAAAGUGAGAAGUAAACCAGAGAAACACACGUUGUGGUAUAUUACCUGGUA, the self-cleavage stood at 0.954. Then GUCCUCUUGCACGUGCGCGUGAAAGAGAGAAGUGAACCAGAGAAACACACGUUGUGGUAUAUUACCGGGUA, with 0.279; and GUCCUCUUUCACGUGCGCGUGAAAGAGGGAAGUGAACCAGAGAAACACACGUUGUCGUAUAUUACCUGGUA, with 0.0641. Then GUCCUCUUUCACGUGCGCGUGAAAGAGAGAAGUGAACCAGAGAAACCCACGUUGUGGUAUAUAACCUGGUA, with 0.127; and GUCCUCUUUCACGUGCGCGUGAAAGAGAGAAGUGAACCAGAGAAUCACACGUUGUGGUAUAUUACCCGGUA, with 0.0755; and GUCCUCUUUCACGUGCGCGUGGAAGAGAGAAGUGAACCAGAGAAACACACGUCGUGGUAUAUUACCUGGUA, with 0.817. Then GUCCUCUUUCACGUUCGCGUGAAAGAGAGAAGUGAACCAGAGAAGCACACGUUGUGGUAUAUUACCUGGUA, with 0.184. With GUCCUCUUUCACGUGCGCGUGAAAGAAAGAAGUGAACCAGAGAAACACACGUUGUGUUAUAUUACCUGGUA, the self-cleavage came to 0.157. With GUCCUUUUUCACGUGCGCGUGAAAGAGAGAAGUGAACCCGAGAAACACACGUUGUGGUAUAUUACCUGGUA the figure was 0.504. As to GUCCUCUUCCACGUGCGCGUGAAAGAGAGAAGUUAACCAGAGAAACACACGUUGUGGUAUAUUACCUGGUA, the self-cleavage was 1.09.

For the variant GUCCUCUUUAACGUGCGCGUGAAAGAGUGAAGUGAACCAGAGAAACACACGUUGUGGUAUAUUACCUGGUA, the self-cleavage is 0.483.

As to GUCCUCUUUCACGUGCGCGUGAAAGAGAGAAGUGAAUCAGAGAAACACGCGUUGUGGUAUAUUACCUGGUA, the self-cleavage turned out to be 0.508. Consider GUCCUCUUUCACGUGCGCGUGAAAGAGAGCAGUGUACCAGAGAAACACACGUUGUGGUAUAUUACCUGGUA, for which the self-cleavage was 0.156.

As for GUCCUCUUUCACGUGCGCGUGUAAGAGAGAAGUGAACUAGAGAAACACACGUUGUGGUAUAUUACCUGGUA, the self-cleavage came out at 0.41. With GUCCUCUUUCACGUGCGCGUGAAAGAGAGAAGUGAACCAGAGAAACACACGUUGUGGUAUAUGACCUGGUA, the self-cleavage turned out to be 0.171. Consider UUCCUCUUUCACGUGCGCGUGAAAGAGAUAAGUGAACCAGAGAAACACACGUUGUGGUAUAUUACCUGGUA, for which the self-cleavage was found to be 0.154. With GUCCUCUUUCACGUGCGCGUGAAAGAUAGAAGUGAACCAGAGAAACACACGUUGAGGUAUAUUACCUGGUA the figure was 0.152; with GGCCUCUUUCACGUGCGCGUGAAAGAGAGAAGUGAACCAGAGAAACACACGGUGUGGUAUAUUACCUGGUA, 0.458. GUCCUCUUUCAGGUGCGCGUGAAAGAGAGAAGUGAACCAGAGAAACACACGUUGUGGUAUAUUACCUGGCA: the self-cleavage was determined as 0.699.

As to GUCCUCUUUCACGUUCGCGUGAAAGAGAGAAGUGAACCAGAGAAACACACGUUGUGGUAGAUUACCUGGUA, the self-cleavage is 0.57. On to GUCCUCUUUCACGUGCGCCUGAAAGAGAGAAGUGAACCAGAGAGACACACGUUGUGGUAUAUUACCUGGUA, for which the self-cleavage stood at 0.0921.

Consider GUCCUCUUUCACGUCAGCGUGAAAGAGAGAAGUGAACCAGAGAAACACACGUUGUGGUAUAUUACCUGGUA, for which the self-cleavage is 1.1.

For GUCCUCUUUCACGUGCUCGUGAAAGAGAGAAGUUAACCAGAGAAACACACGUUGUGGUAUAUUACCUGGUA, the self-cleavage came to 1.29.

Consider GUACUCUUUCACGUGCGCGUGAAAGAGAGAAGUGAACCAGAGAAACACACGGUGUGGUAUAUUACCUGGUA, for which the self-cleavage stood at 0.538.

For the variant GUCCUCUUUCACGUGCGCGUGAAAGAGAGAAGUGAACCAGAGAAACACACGUGGUGGUAUAUUACCUGGUC, the self-cleavage came out at 1.29. Then GUCCUCUUUCACGUGCGCGUGAAGGAGAGAAGUGAACCAGAGAAACACACGUUGUGCUAUAUUACCUGGUA, with 0.118. Take GUCCUCUUUCACGUGCGCGUGAAAGAGAGAAGUGAACGAGAGAAAUACACGUUGUGGUAUAUUACCUGGUA: the self-cleavage was determined as 0.116. Consider GUCCUCUUUCACGUGCGAGUGAAAGACAGAAGUGAACCAGAGAAACACACGUUGUGGUAUAUUACCUGGUA, for which the self-cleavage came out at 0.165. Then GUCUUCUUUCACGUGCGCGUGAAAGAGAGAAGUGAACCAGAGAAACGCACGUUGUGGUAUAUUACCUGGUA, with 0.0924. Consider GUCGUCUUUCACGUGCGCGUGAAAGAUAGAAGUGAACCAGAGAAACACACGUUGUGGUAUAUUACCUGGUA, for which the self-cleavage was found to be 0.31. With GUCCUCUUUCACGUGCGCGUGAAAGAGAGAAAUGAUCCAGAGAAACACACGUUGUGGUAUAUUACCUGGUA the figure was 0.111; with GUCCUCUUUCACGUGAGCGUGACAGAGAGAAGUGAACCAGAGAAACACACGUUGUGGUAUAUUACCUGGUA, 0.983; with GUCCUCUUUCACGUGCGCGAGAAAGAGUGAAGUGAACCAGAGAAACACACGUUGUGGUAUAUUACCUGGUA, 0.497. As to GUCCUCUUUCACGUGCGCGUGAAAGAGAGAAGUGAACCAGAGGAACACACGUUGUGGUAUAUUACCUGGAA, the self-cleavage was determined as 0.225. As to GUCCUCUUUCAUGUGCGCGUGAAAAAGAGAAGUGAACCAGAGAAACACACGUUGUGGUAUAUUACCUGGUA, the self-cleavage was 0.482. GUCCUCUUUCACGUGCGCGUGAAAGAGAGAAUUGAACCAGAGAAAGACACGUUGUGGUAUAUUACCUGGUA: the self-cleavage worked out at 0.14.

For GUCCUCUUUCACGUGCGCGUGAAAGAGAGAAGUGAACCAGAGAAACACACGCUGUGGUAUAUUACCCGGUA, the self-cleavage was found to be 0.274.
